The series in a line: self-splicing fitness, log relative to wild type (ln ratio); higher = more splicing; Tetrahymena group I intron in knt gene, E. coli kanamycin selection, DiMSum; sequences stand for … in CUCUCU…GGAGGGAAAAGUUAUCAGGCAUGCACCUGGUAGCUAGUCUUUAAACCAAUAGAUUGCAUCGGUUUAAAAGGCAAGACCGUCAAAUUGCGGGAAAGGGGUCAACAGCCGUUCAGUACCAAGUCUCAGGGGAAACUUUGAGAUGGCCUUGCAAAGGGUAUGGUAAUAAGCUGACGGACAUGGUCCUAACCACGCAGCCAAGUCCUAAGUCAACAGAUCUUCUGUUGAUAUGGAUGCAGUUCACAGACUAAAUGUCGGUCGGGGAAGAUGUAUUCUUCUCAUAAGAUAUAGUCGGACCUCUCCUUAAUGGGAGCUAGCGGAUGAAGUGAUGCAACACUGGAGCCGCUGGGAACUAAUUUGUAUGCGAAAGUAUAUUGAUUAGUUUUGGAGUACUCGUGGUCG
In a few lines:
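Colonies from six replicate transformations of E. coli BL21(DE3) were pooled and amplicon-sequenced on an Illumina HiSeq 2500. The library placed an intron with all eight P1ex-region nucleotides randomised inside the knt kanamycin-resistance gene on pET-22b(+), and cells grew overnight at 37°C or 30°C on LB agar with or without 25 μg/mL kanamycin (plus 100 μg/mL carbenicillin, 50 μM IPTG, 0.2% rhamnose). Fitness is the DiMSum error-weighted combination of wild-type-normalised replicate fold changes, kanamycin versus none.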

± gives the uncertainty stated by the source.

In the case of UAUUAGCAAUAUUACGUUCU, the “self-splicing fitness (ln)” value runs as follows: (30 °C) -2.64 ± 0.24; (37 °C) -1.19 ± 0.17.

With UCAAAGCAAUAUUACGAAAU, the “self-splicing fitness (ln)” value by setting is: (30 °C) -2.52 ± 0.2; (37 °C) -2.53 ± 0.27.

Regarding UCAAAGCAAUAUUACGAAUA, the “self-splicing fitness (ln)” value (30 °C) was -1.92 ± 0.43 and the “self-splicing fitness (ln)” value (37 °C) was -1.78 ± 0.3.

Turning to UCAAAGCAAUAUUACGACAC, the “self-splicing fitness (ln)” value reads like this: (30 °C) -3.05 ± 0.48; (37 °C) -1.97 ± 0.43.

Consider UCAAAGCAAUAUUACGAGCU, for which the “self-splicing fitness (ln)” value (30 °C) is -2.83 ± 0.23 and the “self-splicing fitness (ln)” value (37 °C) is -1.38 ± 0.22.

Regarding UCAAAGCAAUAUUACGAGGA, the “self-splicing fitness (ln)” value is -2.69 ± 0.15 (30 °C) and -0.561 ± 0.13 (37 °C).

Turning to UCAAAGCAAUAUUACGAGGC, under “37 °C”, the “self-splicing fitness (ln)” value was -2.69 ± 0.3.

Turning to UCAAAGCAAUAUUACGAUAC, the “self-splicing fitness (ln)” value is -3.34 ± 0.28 (30 °C) and -2.82 ± 0.28 (37 °C).

Regarding UCAAAGCAAUAUUACGAUAG, the “self-splicing fitness (ln)” value reads like this: (30 °C) -0.853 ± 0.11; (37 °C) -2.03 ± 0.15.

Take UCAAAGCAAUAUUACGAUGA: the “self-splicing fitness (ln)” value is -0.6 ± 0.074 (30 °C) and -0.51 ± 0.084 (37 °C).

In the case of UCAAAGCAAUAUUACGCAUG, the “self-splicing fitness (ln)” value reads like this: (30 °C) -1.44 ± 0.12; (37 °C) -1.27 ± 0.14.

UCAAAGCAAUAUUACGCCUU: the “self-splicing fitness (ln)” value is -3.63 ± 0.26 (30 °C) and -2.93 ± 0.28 (37 °C).

UCAAAGCAAUAUUACGGAAA: the “self-splicing fitness (ln)” value is -2.64 ± 0.41 (30 °C) and -1.15 ± 0.19 (37 °C).

For UCAAAGCAAUAUUACGGAGG, the “self-splicing fitness (ln)” value reads like this: (30 °C) -3.48 ± 0.28; (37 °C) -1.67 ± 0.21.

UCAAAGCAAUAUUACGGGGC: the “self-splicing fitness (ln)” value is, setting by setting: (30 °C) -2.18 ± 0.16; (37 °C) -2.14 ± 0.19.

Consider UCAAAGCAAUAUUACGGUAU, for which the “self-splicing fitness (ln)” value by setting is: (30 °C) -4.12 ± 0.24; (37 °C) -3.55 ± 0.29.

With UCAAAGCAAUAUUACGUAAC, the “self-splicing fitness (ln)” value by setting is: (30 °C) -3.86 ± 0.21; (37 °C) -2.39 ± 0.27.

In the case of UCAAAGCAAUAUUACGUCCC, the “self-splicing fitness (ln)” value was -0.356 ± 0.2 (30 °C) and -1.14 ± 0.47 (37 °C).

As for UCAAAGCAAUAUUACGUGGA, the “self-splicing fitness (ln)” value runs as follows: (30 °C) -1.49 ± 0.1; (37 °C) -1.6 ± 0.11.

Turning to UCAAAGCAAUAUUACGUGUC, the “self-splicing fitness (ln)” value runs as follows: (30 °C) -3.25 ± 0.22; (37 °C) -1.69 ± 0.19.

Consider UCAAAGCAAUAUUACGUUCA, for which the “self-splicing fitness (ln)” value was -0.821 ± 0.099 (30 °C) and -0.534 ± 0.11 (37 °C).

Regarding UCAAAGCAAUAUUACGUUGA, the “self-splicing fitness (ln)” value runs as follows: (30 °C) -3.43 ± 0.14; (37 °C) -2.66 ± 0.18.

On to UCACAGCAAUAUUACGAAAU, for which the “self-splicing fitness (ln)” value by setting is: (30 °C) -3.43 ± 0.37; (37 °C) -0.587 ± 0.16.

For UCACAGCAAUAUUACGACAU, the “self-splicing fitness (ln)” value (30 °C) was -3.584 ± 0.02 and the “self-splicing fitness (ln)” value (37 °C) was -2.19 ± 0.034.

For the sequence UCACAGCAAUAUUACGACUG, the “self-splicing fitness (ln)” value is, setting by setting: (30 °C) -2.18 ± 0.098; (37 °C) -0.964 ± 0.12.

In the case of UCACAGCAAUAUUACGAUAC, the “self-splicing fitness (ln)” value is -3.87 ± 0.26 (30 °C) and -2.75 ± 0.35 (37 °C).

As to UCACAGCAAUAUUACGAUCG, the “self-splicing fitness (ln)” value was -0.61 ± 0.08 (30 °C) and -0.076 ± 0.11 (37 °C).

In the case of UCACAGCAAUAUUACGCACG, the “self-splicing fitness (ln)” value by setting is: (30 °C) -1.22 ± 0.091; (37 °C) -0.319 ± 0.14.

UCACAGCAAUAUUACGCAUC: the “self-splicing fitness (ln)” value is -4.21 ± 0.36 (30 °C) and -3.04 ± 0.4 (37 °C).

As for UCACAGCAAUAUUACGCCAU, the “self-splicing fitness (ln)” value was -3.28 ± 0.19 (30 °C) and -2.22 ± 0.18 (37 °C).

For the sequence UCACAGCAAUAUUACGCCCU, the “self-splicing fitness (ln)” value is -3.66 ± 0.35 (30 °C) and -0.688 ± 0.2 (37 °C).

As for UCACAGCAAUAUUACGCCGA, the “self-splicing fitness (ln)” value (30 °C) was -0.333 ± 0.1 and the “self-splicing fitness (ln)” value (37 °C) turned out to be 0.184 ± 0.14.

Regarding UCACAGCAAUAUUACGCCGG, the “self-splicing fitness (ln)” value is, setting by setting: (30 °C) -0.748 ± 0.13; (37 °C) 0.108 ± 0.13.

On to UCACAGCAAUAUUACGCCUU, for which the “self-splicing fitness (ln)” value is -3.82 ± 0.37 (30 °C) and -2.71 ± 0.41 (37 °C).

Take UCACAGCAAUAUUACGCUCG: the “self-splicing fitness (ln)” value by setting is: (30 °C) -1.15 ± 0.086; (37 °C) 0.16 ± 0.1.

Regarding UCACAGCAAUAUUACGCUGA, the “self-splicing fitness (ln)” value reads like this: (30 °C) -2.76 ± 0.18; (37 °C) -1.54 ± 0.14.

For the sequence UCACAGCAAUAUUACGGACA, the “self-splicing fitness (ln)” value (30 °C) is -1.22 ± 0.099 and the “self-splicing fitness (ln)” value (37 °C) is -0.687 ± 0.099.

These data come from the supplement of paper PMC7877785.
